Laboratory results: article PMC3478510, “LI-cadherin cis-dimerizes in the plasma membrane Ca^2+ independently and forms highly dynamic trans-contacts” (Cellular and Molecular Life Sciences: CMLS, 2012)
One block for each molecule: values may come before it.

What was measured:
[1] = biological target: LI-cadherin ECD (Homo sapiens) (UniProt Q12864); conditions: cited from earlier work
[2] = biological target: T1, LI-cadherin C-terminally tagged with cyan (LI-CFP) or yellow (LI-YFP) fluorescent protein (UniProt Q9R100 26-827); assay: FRET or BRET; FRET competition: twofold excess of untagged LI-cadherin coexpressed with LI-CFP and LI-YFP in HEK293 cells; acceptor photobleaching; conditions: partners not purified
T1 construct: LI-cadherin (cadherin-17); Two differently tagged copies of the same protein (CFP donor, YFP acceptor), co-expressed for FRET; In the control with EGFR-CFP only the YFP-tagged copy was present; also called LI-cadherin-CFP fusion protein; LI-cadherin-YFP fusion protein; source: HEK293, transfected (FuGENE-6), in living cells; not shown: CFP (on one copy) or YFP (on the other copy), C-terminal, kept
T1 sequence (looked up): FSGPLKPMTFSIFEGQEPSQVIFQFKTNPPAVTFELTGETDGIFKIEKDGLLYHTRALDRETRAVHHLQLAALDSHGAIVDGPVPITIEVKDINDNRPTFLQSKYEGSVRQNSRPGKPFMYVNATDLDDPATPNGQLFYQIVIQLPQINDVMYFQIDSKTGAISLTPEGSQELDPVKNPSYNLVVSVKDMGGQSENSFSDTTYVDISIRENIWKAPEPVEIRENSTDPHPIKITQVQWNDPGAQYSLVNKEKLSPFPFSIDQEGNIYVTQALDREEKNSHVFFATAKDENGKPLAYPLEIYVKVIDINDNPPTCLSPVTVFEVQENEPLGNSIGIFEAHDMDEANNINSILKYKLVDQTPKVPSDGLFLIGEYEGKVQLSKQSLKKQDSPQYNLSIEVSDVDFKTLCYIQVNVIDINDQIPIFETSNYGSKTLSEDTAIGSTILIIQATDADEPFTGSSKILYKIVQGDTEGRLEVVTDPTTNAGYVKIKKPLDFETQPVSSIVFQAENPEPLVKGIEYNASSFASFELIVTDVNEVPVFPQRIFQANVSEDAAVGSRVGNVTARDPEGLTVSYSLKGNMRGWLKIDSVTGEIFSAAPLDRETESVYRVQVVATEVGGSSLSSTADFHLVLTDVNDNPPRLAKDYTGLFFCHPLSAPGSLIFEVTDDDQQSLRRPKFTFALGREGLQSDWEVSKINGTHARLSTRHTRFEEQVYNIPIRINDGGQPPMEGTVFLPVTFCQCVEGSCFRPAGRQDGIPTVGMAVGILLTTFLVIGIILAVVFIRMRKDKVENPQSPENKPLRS

Molecule: LI-cadherin ECD (from UniProt Q12864)
Kd [1]: 27 µM

FRET efficiency of LI-CFP/LI-YFP with a twofold excess of untagged LI-cadherin [2]: 5.2%
B1: untagged LI-cadherin (natural protein, UniProt Q9R100 26-827, looked up)
chain: T1 sequence (looked up)
notes: LI-cadherin (cadherin-17), untagged wild type; The expression construct of the untagged protein is not described in the methods; also called LIwt; wild-type LI; source: HEK293, transfected, in living cells (twofold excess, coexpressed with LI-CFP and LI-YFP)
